Reference: patent US20140058068A1 (UNIVERSITY OF MIAMI, published 2014)
Square brackets hold non-standard residues; d marks the D form. Ends that are not written are not given here. * marks the point of attachment. Desaminotyrosyl = O=C(CCc1ccc(O)cc1)*; NMeY = CN[C@@H](Cc1ccc(O)cc1)C(=O)O; hArg = N=C(N)NCCCC[C@H](N)C(=O)O; Agmatine = N=C(N)NCCCCN*; Nle = CCCC[C@H](N)C(=O)O; Orn = NCCC[C@H](N)C(=O)O; Abu = CC[C@H](N)C(=O)O; GABA = NCCCC(=O)O

What was measured:
[1] = biological target: GHRH receptor of human pituitary membrane homogenates (human) (UniProt Q02643); experiment: radioligand competition, [His1,125I-Tyr10,Nle27]hGHRH(1-32)NH2 (0.2 nM) as competitor, human pituitary membrane homogenates
[2] = biological target: GHRH receptor of human pituitary membrane homogenates (human) (UniProt Q02643); experiment: radioligand competition, 125I-JV-1-42 (~0.2 nM) as competitor, human pituitary membrane homogenates
[3] = biological target: GHRH receptor of human pituitary membrane homogenates (human) (UniProt Q02643); experiment: as above; remark: listed apart in the source
[4] = biological target: T1, GHRH receptor of human pituitary membrane homogenates (human, UniProt Q02643 23-423); experiment: radioligand competition, [His1,125I-Tyr10,Nle27]hGHRH(1-32)NH2 (0.2 nM) as competitor, human pituitary membrane homogenates
T1 construct: whole, on cells; Native receptor in pituitary membrane homogenates, not intact cells; also called hGH-RH receptor
T1 sequence (looked up): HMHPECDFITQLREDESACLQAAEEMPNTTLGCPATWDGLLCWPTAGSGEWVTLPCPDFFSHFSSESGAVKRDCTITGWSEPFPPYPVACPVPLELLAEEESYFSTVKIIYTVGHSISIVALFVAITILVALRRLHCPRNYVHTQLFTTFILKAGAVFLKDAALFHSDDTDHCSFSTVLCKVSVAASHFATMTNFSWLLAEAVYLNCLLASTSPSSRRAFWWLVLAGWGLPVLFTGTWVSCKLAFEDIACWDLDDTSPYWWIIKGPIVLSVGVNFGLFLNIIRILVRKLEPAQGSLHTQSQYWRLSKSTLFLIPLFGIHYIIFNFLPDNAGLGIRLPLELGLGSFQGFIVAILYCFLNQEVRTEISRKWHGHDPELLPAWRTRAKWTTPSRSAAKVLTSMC
Excerpt: Normal human pituitaries were purchased from the National Hormone and Peptide Program (A. F. Parlow, Los Angeles, County Harbor—UCLA Medical Center, Torrance, Calif.).

[5] = biological target: T1, GHRH receptor of human pituitary …; experiment: radioligand competition, 125I-JV-1-42 (~0.2 nM) as competitor, human pituitary membrane homogenates
Excerpt: (§1) Normal human pituitaries were purchased from the National Hormone and Peptide Program (A. F. Parlow, Los Angeles, County Harbor-UCLA Medical Center, Torrance, Calif.).

[6] = biological target: T1, GHRH receptor of human pituitary …; experiment: as above; remark: listed apart in the source
Method: as §1
The final binding affinities were expressed as IC₅₀ values and were calculated by using the LIGAND PC computerized curve-fitting program of Munson and Rodbard as modified by McPherson.

## [Dat^1, D-Ala^2, Gln^8, Orn^12, Abu^15, Orn^21, Nle^27, Asp^28, Amc^30]hGH-RH(1-30)NH2 (from UniProt P01286 32-61) (peptide)
[1]
  IC50: 0.08 nM
  Relative affinity (Binding potency) vs GHRH (fold, GHRH(1-29) = 1): 74
  Relative affinity (Binding potency) vs JI-38 (fold, JI-38 = 1): 24.4

## [Dat^1, D-Ala^2, Gln^8, Orn^12, Abu^15, Orn^21, Nle^27, Asp^28, Agm^29]hGH-RH(1-29) (from UniProt P01286 32-60) (peptide)
[2]
  IC50: 0.04 nM
  Relative affinity (Binding potency) vs GHRH (fold, GHRH(1-29) = 1): 102
  Relative affinity (Binding potency) vs JI-38 (fold, JI-38 = 1): 42.7
[3]
  IC50: 0.52 nM
  Relative affinity (Binding potency) vs JI-38 (fold, JI-38 = 1): 8.37

## [Dat^1, D-Ala^2, Fpa5^6, Orn^12, Abu^15, Orn^21, Nle^27, Gab^30]hGH-RH(1-30)NH2 (from UniProt P01286 32-61) (peptide)
[2]
  IC50: 0.07 nM
  Relative affinity (Binding potency) vs GHRH (fold, GHRH(1-29) = 1): 58
  Relative affinity (Binding potency) vs JI-38 (fold, JI-38 = 1): 24.4
[3]
  IC50: 0.33 nM
  Relative affinity (Binding potency) vs JI-38 (fold, JI-38 = 1): 13.2

B1: [Dat^1, D-Ala^2, Thr^8, Orn^12, Abu^15, Orn^21, Nle^27, Asp^28, Har^30]hGH-RH(1-30)NH2 (peptide)
chain: [Desaminotyrosyl][dA]DAIFTTSYR[Orn]VL[Abu]QLSAR[Orn]LLQDI[Nle]DR[hArg]-NH2
SMILES: CCCC[C@H](NC(=O)[C@@H](NC(=O)[C@H](CC(=O)O)NC(=O)[C@H](CCC(N)=O)NC(=O)[C@H](CC(C)C)NC(=O)[C@H](CC(C)C)NC(=O)[C@H](CCCN)NC(=O)[C@H](CCCNC(=N)N)NC(=O)[C@H](C)NC(=O)[C@H](CO)NC(=O)[C@H](CC(C)C)NC(=O)[C@H](CCC(N)=O)NC(=O)[C@H](CC)NC(=O)[C@H](CC(C)C)NC(=O)[C@@H](NC(=O)[C@H](CCCN)NC(=O)[C@H](CCCNC(=N)N)NC(=O)[C@H](Cc1ccc(O)cc1)NC(=O)[C@H](CO)NC(=O)[C@@H](NC(=O)[C@@H](NC(=O)[C@H](Cc1ccccc1)NC(=O)[C@@H](NC(=O)[C@H](C)NC(=O)[C@H](CC(=O)O)NC(=O)[C@@H](C)NC(=O)CCc1ccc(O)cc1)[C@@H](C)CC)[C@@H](C)O)[C@@H](C)O)C(C)C)[C@@H](C)CC)C(=O)N[C@@H](CC(=O)O)C(=O)N[C@@H](CCCNC(=N)N)C(=O)N[C@@H](CCCCNC(=N)N)C(N)=O
[4]
  IC50: 0.07 nM
  Relative affinity (Binding potency) vs GHRH: 84.5 fold, GHRH(1-29) = 1
  Relative affinity (Binding potency) vs JI-38: 27.8 fold, JI-38 = 1

B2: [N-Me-Tyr^1, Gln^8, Orn^12, Abu^15, Orn^21, Nle^27, Asp^28, Agm^29]hGH-RH(1-29) (peptide)
peptide: [NMeY]ADAIFTQSYR[Orn]VL[Abu]QLSAR[Orn]LLQDI[Nle]D[Agmatine]
notes: also called P20356
[5]
  IC50: 0.27 nM
  Relative affinity (Binding potency) vs JI-38: 16.1 fold, JI-38 = 1
[6]
  IC50: 0.01 nM
  Relative affinity (Binding potency) vs GHRH: 406 fold, GHRH(1-29) = 1
  Relative affinity (Binding potency) vs JI-38: 171 fold, JI-38 = 1

B3: [Dat^1, D-Ala^2, Orn^12, Abu^15, Orn^21, Nle^27, Gln-Gab^30]hGH-RH(1-30)NH2 (peptide)
peptide: [Desaminotyrosyl][dA]DAIFTNSYR[Orn]VL[Abu]QLSAR[Orn]LLQDI[Nle]SRQ[GABA]-NH2
SMILES: CCCC[C@H](NC(=O)[C@@H](NC(=O)[C@H](CC(=O)O)NC(=O)[C@H](CCC(N)=O)NC(=O)[C@H](CC(C)C)NC(=O)[C@H](CC(C)C)NC(=O)[C@H](CCCN)NC(=O)[C@H](CCCNC(=N)N)NC(=O)[C@H](C)NC(=O)[C@H](CO)NC(=O)[C@H](CC(C)C)NC(=O)[C@H](CCC(N)=O)NC(=O)[C@H](CC)NC(=O)[C@H](CC(C)C)NC(=O)[C@@H](NC(=O)[C@H](CCCN)NC(=O)[C@H](CCCNC(=N)N)NC(=O)[C@H](Cc1ccc(O)cc1)NC(=O)[C@H](CO)NC(=O)[C@H](CC(N)=O)NC(=O)[C@@H](NC(=O)[C@H](Cc1ccccc1)NC(=O)[C@@H](NC(=O)[C@H](C)NC(=O)[C@H](CC(=O)O)NC(=O)[C@@H](C)NC(=O)CCc1ccc(O)cc1)[C@@H](C)CC)[C@@H](C)O)C(C)C)[C@@H](C)CC)C(=O)N[C@@H](CO)C(=O)N[C@@H](CCCNC(=N)N)C(=O)N[C@@H](CCC(N)=O)C(=O)NCCCC(N)=O
notes: T0009 prints Asn^s for Asn^8; also called P29702
[5]
  IC50: 0.86 nM
  Relative affinity (Binding potency) vs JI-38: 5.06 fold, JI-38 = 1
[6]
  IC50: 0.05 nM
  Relative affinity (Binding potency) vs GHRH: 81.2 fold, GHRH(1-29) = 1
  Relative affinity (Binding potency) vs JI-38: 34.2 fold, JI-38 = 1

B4: [Dat^1, D-Ala^2, Ala^8, Orn^12, Abu^15, Orn^21, Nle^27, Asp^28, Har^30]hGH-RH(1-30)NH2 (peptide)
chain: [Desaminotyrosyl][dA]DAIFTASYR[Orn]VL[Abu]QLSAR[Orn]LLQDI[Nle]DR[hArg]-NH2
SMILES: CCCC[C@H](NC(=O)[C@@H](NC(=O)[C@H](CC(=O)O)NC(=O)[C@H](CCC(N)=O)NC(=O)[C@H](CC(C)C)NC(=O)[C@H](CC(C)C)NC(=O)[C@H](CCCN)NC(=O)[C@H](CCCNC(=N)N)NC(=O)[C@H](C)NC(=O)[C@H](CO)NC(=O)[C@H](CC(C)C)NC(=O)[C@H](CCC(N)=O)NC(=O)[C@H](CC)NC(=O)[C@H](CC(C)C)NC(=O)[C@@H](NC(=O)[C@H](CCCN)NC(=O)[C@H](CCCNC(=N)N)NC(=O)[C@H](Cc1ccc(O)cc1)NC(=O)[C@H](CO)NC(=O)[C@H](C)NC(=O)[C@@H](NC(=O)[C@H](Cc1ccccc1)NC(=O)[C@@H](NC(=O)[C@H](C)NC(=O)[C@H](CC(=O)O)NC(=O)[C@@H](C)NC(=O)CCc1ccc(O)cc1)[C@@H](C)CC)[C@@H](C)O)C(C)C)[C@@H](C)CC)C(=O)N[C@@H](CC(=O)O)C(=O)N[C@@H](CCCNC(=N)N)C(=O)N[C@@H](CCCCNC(=N)N)C(N)=O
[4]
  IC50: 0.04 nM
  Relative affinity (Binding potency) vs GHRH: 148 fold, GHRH(1-29) = 1
  Relative affinity (Binding potency) vs JI-38: 48.7 fold, JI-38 = 1
